From IntAct's records for PubMed 17306257

B1: SH3 domain-binding protein 2 (Homo sapiens), P78314 (parent)
chain: MAAEEMHWPVPMKAIGAQNLLTMPGGVAKAGYLHKKGGTQLQLLKWPLRFVIIHKRCVYYFKSSTSASPQGAFSLSGYNRVMRAAEETTSNNVFPFKIIHISKKHRTWFFSASSEEERKSWMALLRREIGHFHEKKDLPLDTSDSSSDTDSFYGAVERPVDISLSPYPTDNEDYEHDDEDDSYLEPDSPEPGRLEDALMHPPAYPPPPVPTPRKPAFSDMPRAHSFTSKGPGPLLPPPPPKHGLPDVGLAAEDSKRDPLCPRRAEPCPRVPATPRRMSDPPLSTMPTAPGLRKPPCFRESASPSPEPWTPGHGACSTSSAAIMATATSRNCDKLKSFHLSPRGPPTSEPPPVPANKPKFLKIAEEDPPREAAMPGLFVPPVAPRPPALKLPVPEAMARPAVLPRPEKPQLPHLQRSPPDGQSFRSFSFEKPRQPSQADTGGDDSDEDYEKVPLPNSVFVNTTESCEVERLFKATSPRGEPQDGLYCIRNSSTKSGKVLVVWDETSNKVRNYRIFEKDSKFYLEGEVLFVSVGSMVEHYHTHVLPSHQSLLLRHPYGYTGPR

Variants of: B1
Conditions: with sh3k1_human SH3KBP1, Q96B97
sh3k1_human SH3KBP1, Q96B97, sequence (Q96B97 whole entry): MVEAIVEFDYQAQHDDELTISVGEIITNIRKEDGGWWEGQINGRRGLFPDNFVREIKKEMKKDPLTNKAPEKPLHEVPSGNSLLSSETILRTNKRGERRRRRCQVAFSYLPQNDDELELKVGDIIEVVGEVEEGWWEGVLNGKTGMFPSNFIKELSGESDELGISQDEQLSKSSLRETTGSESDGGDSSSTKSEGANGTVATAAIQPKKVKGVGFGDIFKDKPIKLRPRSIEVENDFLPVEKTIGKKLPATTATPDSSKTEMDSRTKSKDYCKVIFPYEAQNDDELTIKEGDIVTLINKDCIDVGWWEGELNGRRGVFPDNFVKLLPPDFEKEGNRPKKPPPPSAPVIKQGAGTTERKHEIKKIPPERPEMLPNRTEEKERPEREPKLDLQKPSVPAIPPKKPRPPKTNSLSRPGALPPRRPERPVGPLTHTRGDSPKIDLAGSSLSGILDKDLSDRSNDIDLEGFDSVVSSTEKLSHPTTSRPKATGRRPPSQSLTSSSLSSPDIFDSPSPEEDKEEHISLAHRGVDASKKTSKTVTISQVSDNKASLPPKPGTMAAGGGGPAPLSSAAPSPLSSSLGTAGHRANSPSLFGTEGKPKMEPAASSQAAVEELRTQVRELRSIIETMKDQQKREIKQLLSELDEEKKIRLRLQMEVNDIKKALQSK

Variant	effect of a mutation on the interaction
MAAEEMHWPVPMKAIGAQNLLTMPGGVAKAGYLHKKGGTQLQLLKWPLRFVIIHKRCVYYFKSSTSASPQGAFSLSGYNRVMRAAEETTSNNVFPFKIIHISKKHRTWFFSASSEEERKSWMALLRREIGHFHEKKDLPLDTSDSSSDTDSFYGAVERPVDISLSPYPTDNEDYEHDDEDDSYLEPDSPEPGRLEDALMHPPAYPPPPVPTPAKPAFSDMPRAHSFTSKGPGPLLPPPPPKHGLPDVGLAAEDSKRDPLCPRRAEPCPRVPATPRRMSDPPLSTMPTAPGLRKPPCFRESASPSPEPWTPGHGACSTSSAAIMATATSRNCDKLKSFHLSPRGPPTSEPPPVPANKPKFLKIAEEDPPREAAMPGLFVPPVAPRPPALKLPVPEAMARPAVLPRPEKPQLPHLQRSPPDGQSFRSFSFEKPRQPSQADTGGDDSDEDYEKVPLPNSVFVNTTESCEVERLFKATSPRGEPQDGLYCIRNSSTKSGKVLVVWDETSNKVRNYRIFEKDSKFYLEGEVLFVSVGSMVEHYHTHVLPSHQSLLLRHPYGYTGPR [R213A]	decreasing interaction
